Measurements from patent US20250242041A1 (Seagen, published 2025).
Where two headings read alike, the source gives them in different places.

What was measured:
[1] = molecular target: T1, human αvβ6 on 293F:huβ6 cells (human, UniProt P06756 31-1048; P18564 22-788); experiment: competition binding on 293F cells; 2nM m2A2-AF647 competitor
T1 chain 1: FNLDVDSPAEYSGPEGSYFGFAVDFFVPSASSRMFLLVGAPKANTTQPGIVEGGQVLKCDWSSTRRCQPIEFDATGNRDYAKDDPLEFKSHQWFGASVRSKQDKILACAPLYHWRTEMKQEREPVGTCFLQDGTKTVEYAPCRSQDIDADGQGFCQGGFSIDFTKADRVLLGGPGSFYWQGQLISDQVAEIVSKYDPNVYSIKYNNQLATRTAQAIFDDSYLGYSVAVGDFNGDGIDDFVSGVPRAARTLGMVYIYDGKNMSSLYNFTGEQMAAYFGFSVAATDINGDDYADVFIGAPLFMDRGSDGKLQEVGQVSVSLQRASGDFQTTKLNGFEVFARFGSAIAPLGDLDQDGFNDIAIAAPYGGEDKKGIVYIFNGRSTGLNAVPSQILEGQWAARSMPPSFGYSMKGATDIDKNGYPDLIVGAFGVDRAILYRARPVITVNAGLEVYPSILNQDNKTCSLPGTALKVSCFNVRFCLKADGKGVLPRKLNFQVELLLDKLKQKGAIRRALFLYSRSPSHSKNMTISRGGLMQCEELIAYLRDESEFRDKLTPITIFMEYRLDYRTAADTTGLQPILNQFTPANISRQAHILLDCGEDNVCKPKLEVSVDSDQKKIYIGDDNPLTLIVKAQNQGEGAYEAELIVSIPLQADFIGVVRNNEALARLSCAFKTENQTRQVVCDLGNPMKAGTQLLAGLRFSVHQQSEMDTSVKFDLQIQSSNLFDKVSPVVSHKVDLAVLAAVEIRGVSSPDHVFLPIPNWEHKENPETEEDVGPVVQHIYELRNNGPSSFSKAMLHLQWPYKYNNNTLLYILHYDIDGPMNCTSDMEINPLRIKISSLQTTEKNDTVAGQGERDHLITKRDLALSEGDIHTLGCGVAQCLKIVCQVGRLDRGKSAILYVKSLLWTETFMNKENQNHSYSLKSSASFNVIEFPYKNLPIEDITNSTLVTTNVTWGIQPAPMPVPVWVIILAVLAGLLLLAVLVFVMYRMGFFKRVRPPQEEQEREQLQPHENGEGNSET
T1 chain 2: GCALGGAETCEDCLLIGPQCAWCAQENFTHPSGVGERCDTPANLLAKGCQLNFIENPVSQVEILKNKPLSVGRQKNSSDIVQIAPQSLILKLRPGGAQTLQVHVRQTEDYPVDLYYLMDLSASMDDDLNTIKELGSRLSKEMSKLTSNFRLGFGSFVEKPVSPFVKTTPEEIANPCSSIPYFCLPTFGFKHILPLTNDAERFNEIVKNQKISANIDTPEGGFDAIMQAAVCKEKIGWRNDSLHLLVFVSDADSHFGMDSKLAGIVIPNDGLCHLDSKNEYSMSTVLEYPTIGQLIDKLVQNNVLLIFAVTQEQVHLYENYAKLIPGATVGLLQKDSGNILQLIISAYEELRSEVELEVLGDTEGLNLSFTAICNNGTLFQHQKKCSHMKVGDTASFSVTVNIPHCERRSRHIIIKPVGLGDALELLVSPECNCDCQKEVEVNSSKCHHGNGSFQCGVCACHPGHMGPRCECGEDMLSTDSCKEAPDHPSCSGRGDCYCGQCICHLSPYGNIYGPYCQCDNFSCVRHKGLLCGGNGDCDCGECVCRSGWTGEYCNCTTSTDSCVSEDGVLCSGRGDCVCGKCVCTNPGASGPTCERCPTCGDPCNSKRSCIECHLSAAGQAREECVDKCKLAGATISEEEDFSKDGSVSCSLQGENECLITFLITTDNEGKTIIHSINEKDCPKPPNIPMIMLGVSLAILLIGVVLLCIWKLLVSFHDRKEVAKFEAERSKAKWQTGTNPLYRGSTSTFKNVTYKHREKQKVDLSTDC

[2] = molecular target: T2, cyno αvβ6 on 293F:cynoβ6 cells (human;Macaca fascicularis, UniProt P06756 31-1048; A0A2K5TZ36 22-787); experiment: saturation binding on 293F cells; AF647-labeled
T2 chain 1: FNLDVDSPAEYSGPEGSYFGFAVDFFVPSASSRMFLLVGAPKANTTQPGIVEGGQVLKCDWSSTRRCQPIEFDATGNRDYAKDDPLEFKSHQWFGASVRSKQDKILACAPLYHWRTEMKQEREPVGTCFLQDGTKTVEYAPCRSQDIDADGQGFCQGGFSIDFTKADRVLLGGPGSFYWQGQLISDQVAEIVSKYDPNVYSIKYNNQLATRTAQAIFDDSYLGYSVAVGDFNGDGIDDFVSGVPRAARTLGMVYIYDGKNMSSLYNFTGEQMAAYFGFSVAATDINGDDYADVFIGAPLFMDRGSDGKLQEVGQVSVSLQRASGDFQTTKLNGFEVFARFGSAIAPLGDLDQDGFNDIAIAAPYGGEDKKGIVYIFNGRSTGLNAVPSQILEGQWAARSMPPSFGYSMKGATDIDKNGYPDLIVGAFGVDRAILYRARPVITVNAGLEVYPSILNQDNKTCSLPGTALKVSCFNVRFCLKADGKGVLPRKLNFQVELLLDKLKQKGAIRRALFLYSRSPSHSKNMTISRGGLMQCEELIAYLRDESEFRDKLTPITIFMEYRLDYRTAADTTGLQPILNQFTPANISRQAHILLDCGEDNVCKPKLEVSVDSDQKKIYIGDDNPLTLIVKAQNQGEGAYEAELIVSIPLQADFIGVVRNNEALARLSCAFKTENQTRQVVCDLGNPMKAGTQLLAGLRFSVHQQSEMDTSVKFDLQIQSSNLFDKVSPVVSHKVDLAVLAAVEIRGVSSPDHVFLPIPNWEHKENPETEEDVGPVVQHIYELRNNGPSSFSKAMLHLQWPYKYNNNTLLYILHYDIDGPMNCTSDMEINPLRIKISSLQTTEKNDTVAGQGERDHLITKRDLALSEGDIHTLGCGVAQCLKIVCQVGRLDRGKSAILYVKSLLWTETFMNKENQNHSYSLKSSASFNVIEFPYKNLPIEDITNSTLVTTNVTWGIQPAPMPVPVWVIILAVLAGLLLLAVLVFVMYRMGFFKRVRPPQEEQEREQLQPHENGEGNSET
T2 chain 2: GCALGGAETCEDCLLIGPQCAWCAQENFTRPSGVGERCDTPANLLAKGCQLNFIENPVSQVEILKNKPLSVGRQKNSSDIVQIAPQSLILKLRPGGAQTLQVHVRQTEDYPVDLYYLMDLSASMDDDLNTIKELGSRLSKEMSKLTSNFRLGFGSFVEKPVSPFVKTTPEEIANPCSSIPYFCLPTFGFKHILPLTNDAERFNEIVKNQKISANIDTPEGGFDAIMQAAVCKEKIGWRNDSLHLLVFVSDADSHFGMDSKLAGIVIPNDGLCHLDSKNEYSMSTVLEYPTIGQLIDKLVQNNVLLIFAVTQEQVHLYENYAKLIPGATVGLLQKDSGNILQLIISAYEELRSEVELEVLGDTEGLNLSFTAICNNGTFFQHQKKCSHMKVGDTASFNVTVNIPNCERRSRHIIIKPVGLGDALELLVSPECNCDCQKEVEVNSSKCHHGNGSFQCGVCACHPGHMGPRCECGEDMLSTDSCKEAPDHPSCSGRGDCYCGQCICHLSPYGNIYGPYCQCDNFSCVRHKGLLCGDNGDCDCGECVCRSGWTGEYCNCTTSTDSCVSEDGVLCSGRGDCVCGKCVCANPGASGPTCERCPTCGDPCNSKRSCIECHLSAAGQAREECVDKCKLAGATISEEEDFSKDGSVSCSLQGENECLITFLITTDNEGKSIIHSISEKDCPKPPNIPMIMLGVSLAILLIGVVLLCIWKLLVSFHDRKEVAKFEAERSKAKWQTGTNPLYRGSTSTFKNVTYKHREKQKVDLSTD

[3] = molecular target: T1, human αvβ6 on 293F:huβ6 cells; experiment: saturation binding on 293F cells; AF647-labeled
[4] = molecular target: T3, human αvβ6 on 293F:huβ6 cells (human, UniProt P06756 31-1048; P18564 22-788); experiment: FMAT and flow cytometry binding studies on cells
T3 construct: whole, on cells; also called HEK293F:huβ6

[5] = molecular target: T4, αvβ5 on the αvβ5-positive parental line (293F:vector) (human, UniProt P06756 31-1048; P18084 24-799); experiment: FMAT and flow cytometry binding studies on cells
T4 construct: whole, on cells; HEK293F cells transfected with the empty vector, used as negative control; also called HEK293F:vector
T4 sequence (P18084 24-799, one chain of several): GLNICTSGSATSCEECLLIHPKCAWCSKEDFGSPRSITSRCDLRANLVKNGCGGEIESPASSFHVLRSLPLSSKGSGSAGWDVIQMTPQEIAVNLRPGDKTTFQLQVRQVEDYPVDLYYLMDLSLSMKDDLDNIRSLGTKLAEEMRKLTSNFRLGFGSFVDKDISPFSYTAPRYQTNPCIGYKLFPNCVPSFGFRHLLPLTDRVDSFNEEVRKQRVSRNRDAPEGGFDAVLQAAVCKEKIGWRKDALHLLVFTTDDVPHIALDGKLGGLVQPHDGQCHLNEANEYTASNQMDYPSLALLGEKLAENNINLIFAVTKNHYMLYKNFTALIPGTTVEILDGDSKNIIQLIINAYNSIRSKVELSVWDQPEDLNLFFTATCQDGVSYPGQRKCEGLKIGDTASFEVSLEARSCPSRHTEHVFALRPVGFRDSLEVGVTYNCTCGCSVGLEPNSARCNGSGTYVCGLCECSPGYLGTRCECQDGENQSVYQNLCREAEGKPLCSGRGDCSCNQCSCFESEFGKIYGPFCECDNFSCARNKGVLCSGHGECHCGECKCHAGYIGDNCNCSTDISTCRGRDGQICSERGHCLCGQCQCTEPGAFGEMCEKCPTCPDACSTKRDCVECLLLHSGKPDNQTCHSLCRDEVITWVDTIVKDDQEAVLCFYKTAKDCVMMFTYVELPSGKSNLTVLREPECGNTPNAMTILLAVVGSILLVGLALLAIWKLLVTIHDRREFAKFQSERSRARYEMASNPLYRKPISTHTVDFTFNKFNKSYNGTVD

[6] = molecular target: T1, human αvβ6 on 293F:huβ6 cells; experiment: competition binding on 293F cells; 2nM m2A2-AF647 competitor
[7] = molecular target: T2, cyno αvβ6 on 293F:cynoβ6 cells; experiment: saturation binding on 293F cells; AF647-labeled
[8] = molecular target: T1, human αvβ6 on 293F:huβ6 cells; experiment: saturation binding on 293F cells; AF647-labeled
[9] = molecular target: T1, human αvβ6 on 293F:huβ6 cells; experiment: competition binding on 293F cells; 2nM m2A2-AF647 competitor

B1: murine monoclonal antibody 2A2 (antibody, V domains shown)
VH: EFQLQQSGPELVKPGASVKISCKASGYSFTDYNVNWVKQSNGKSLEWIGVINPKYGTTRYNQKFKGKATLTVDKPSSTAYMQLNSLTSEDSAVYYCTRGLNAWDYWGQGASVTVSS
VL: DIQMTQSPASLSASVGETVTITCGASENIYGALNWYQRKQGKSPQLLIYGATNLADGMSSRFSGSGSGRQYSFKISSLHPDDVATYYCQNVLTTPYTFGGGTKLEIK
notes: Mouse hybridoma IgG; also called m2A2; mouse 2A2
Which results are given for B1?
EC50 [1]: 3 nM; EC50 [2]: 0.4 nM; EC50 [3]: 0.5 nM; binding result [4]: binds; binding result [5]: no binding; EC50 [6]: 3 nM; EC50 [7]: 0.4 nM; EC50 [8]: 0.5 nM; EC50 [9]: 2 nM
